Measured values as given in paper PMC6753376 (Molecular Systems Biology, 2019).

T1: Mcm2 (S. cerevisiae, UniProt P29469 1-868)
T1 construct: Mcm2, S. cerevisiae, subunit of MCM2-7 in the OCCM complex; the search database held all 14 OCCM subunits; source: in the OCCM complex assembled on pUC19-ARS1 beads as described elsewhere (Evrin et al, 2009)
T1 sequence (looked up): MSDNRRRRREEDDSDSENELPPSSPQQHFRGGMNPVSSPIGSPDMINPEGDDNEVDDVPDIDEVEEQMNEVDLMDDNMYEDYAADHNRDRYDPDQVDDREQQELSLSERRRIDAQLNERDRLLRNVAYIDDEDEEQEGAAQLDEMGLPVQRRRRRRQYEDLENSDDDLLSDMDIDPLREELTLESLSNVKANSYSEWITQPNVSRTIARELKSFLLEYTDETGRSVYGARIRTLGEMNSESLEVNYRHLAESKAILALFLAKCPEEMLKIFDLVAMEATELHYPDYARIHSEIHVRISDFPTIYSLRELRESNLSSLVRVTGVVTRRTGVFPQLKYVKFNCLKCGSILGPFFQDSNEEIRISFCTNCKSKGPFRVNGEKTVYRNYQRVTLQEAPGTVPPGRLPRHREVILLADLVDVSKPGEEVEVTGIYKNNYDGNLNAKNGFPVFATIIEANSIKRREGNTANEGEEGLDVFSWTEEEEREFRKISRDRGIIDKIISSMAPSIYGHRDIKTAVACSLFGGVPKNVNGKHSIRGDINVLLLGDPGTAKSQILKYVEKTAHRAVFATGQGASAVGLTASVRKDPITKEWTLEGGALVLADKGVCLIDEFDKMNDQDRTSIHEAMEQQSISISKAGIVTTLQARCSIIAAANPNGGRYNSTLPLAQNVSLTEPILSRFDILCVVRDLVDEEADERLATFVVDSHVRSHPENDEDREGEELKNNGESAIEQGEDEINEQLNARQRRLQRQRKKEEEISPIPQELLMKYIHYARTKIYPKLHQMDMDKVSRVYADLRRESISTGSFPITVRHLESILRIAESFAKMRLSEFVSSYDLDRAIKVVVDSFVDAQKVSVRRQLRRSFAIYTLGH

B1: Orc2 (natural protein, S. cerevisiae, UniProt P32833 1-620, looked up)
chain: MLNGEDFVEHNDILSSPAKSRNVTPKRVDPHGERQLRRIHSSKKNLLERISLVGNERKNTSPDPALKPKTPSKAPRKRGRPRKIQEELTDRIKKDEKDTISSKKKRKLDKDTSGNVNEESKTSNNKQVMEKTGIKEKREREKIQVATTTYEDNVTPQTDDNFVSNSPEPPEPATPSKKSLTTNHDFTSPLKQIIMNNLKEYKDSTSPGKLTLSRNFTPTPVPKNKKLYQTSETKSASSFLDTFEGYFDQRKIVRTNAKSRHTMSMAPDVTREEFSLVSNFFNENFQKRPRQKLFEIQKKMFPQYWFELTQGFSLLFYGVGSKRNFLEEFAIDYLSPKIAYSQLAYENELQQNKPVNSIPCLILNGYNPSCNYRDVFKEITDLLVPAELTRSETKYWGNHVILQIQKMIDFYKNQPLDIKLILVVHNLDGPSIRKNTFQTMLSFLSVIRQIAIVASTDHIYAPLLWDNMKAQNYNFVFHDISNFEPSTVESTFQDVMKMGKSDTSSGAEGAKYVLQSLTVNSKKMYKLLIETQMQNMGNLSANTGPKRGTQRTGVELKLFNHLCAADFIASNEIALRSMLREFIEHKMANITKNNSGMEIIWVPYTYAELEKLLKTVLNTL
notes: Orc2, S. cerevisiae, subunit of ORC in the OCCM complex; source: in the OCCM complex assembled on pUC19-ARS1 beads as described elsewhere (Evrin et al, 2009)
B2: Orc5 (natural protein, S. cerevisiae, UniProt P50874 1-479, looked up)
chain: MNVTTPEVAFREYQTNCLASYISADPDITPSNLILQGYSGTGKTYTLKKYFNANPNLHAVWLEPVELVSWKPLLQAIARTVQYKLKTLYPNIPTTDYDPLQVEEPFLLVKTLHNIFVQYESLQEKTCLFLILDGFDSLQDLDAALFNKYIKLNELLPKDSKINIKFIYTMLETSFLQRYSTHCIPTVMFPRYNVDEVSTILVMSRCGELMEDSCLRKRIIEEQITDCTDDQFQNVAANFIHLIVQAFHSYTGNDIFALNDLIDFKWPKYVSRITKENIFEPLALYKSAIKLFLSTDDNLSENGQGESAITTNRDDLENSQTYDLSIISKYLLIASYICSYLEPRYDASIFSRKTRIIQGRAAYGRRKKKEVNPRYLQPSLFAIERLLAIFQAIFPIQGKAESGSLSALREESLMKANIEVFQNLSELHTLKLIATTMNKNIDYLSPKVRWKVNVPWEIIKEISESVHFNISDYFSDIHE
notes: Orc5, S. cerevisiae, subunit of ORC in the OCCM complex; source: in the OCCM complex assembled on pUC19-ARS1 beads as described elsewhere (Evrin et al, 2009)
B3: Cdt1 (natural protein, S. cerevisiae, UniProt P47112 1-604, looked up)
chain: MSGTANSRRKEVLRVPVIDLNRVSDEEQLLPVVRAILLQHDTFLLKNYANKAVLDALLAGLTTKDLPDTSQGFDANFTGTLPLEDDVWLEQYIFDTDPQLRFDRKCRNESLCSIYSRLFKLGLFFAQLCVKSVVSSAELQDCISTSHYATKLTRYFNDNGSTHDGADAGATVLPTGDDFQYLFERDYVTFLPTGVLTIFPCAKAIRYKPSTMATTDNSWVSIDEPDCLLFHTGTLLARWSQGMHTTSPLQIDPRANIVSLTIWPPLTTPISSKGEGTIANHLLEQQIKAFPKVAQQYYPRELSILRLQDAMKFVKELFTVCETVLSLNALSRSTGVPPELHVLLPQISSMMKRKIVQDDILKLLTIWSDAYVVELNSRGELTMNLPKRDNLTTLTNKSRTLAFVERAESWYQQVIASKDEIMTDVPAFKINKRRSSSNSKTVLSSKVQTKSSNANALNNSRYLANSKENFMYKEKMPDSQANLMDRLRERERRSAALLSQRQKRYQQFLAMKMTQVFDILFSLTRGQPYTETYLSSLIVDSLQDSNNPIGTKEASEILAGLQGILPMDISVHQVDGGLKVYRWNSLDKNRFSKLLQIHKSKQQD
notes: Cdt1, S. cerevisiae, subunit of the OCCM complex; source: in the OCCM complex assembled on pUC19-ARS1 beads as described elsewhere (Evrin et al, 2009)

Experiments:
C3b (human) = C3b (human) (UniProt P01024); assay: cross-linking; quantitative cross-linking mass spectrometry (QCLMS) of C3b alone; C3b monomer and dimer labelled as in Chen et al, 2016c, in-gel digested with trypsin, then sequential digestion
Mcm2 = biological target: T1, Mcm2; assay: cross-linking; BS3 cross-linking of 200 ug OCCM complex on pUC19-ARS1 beads, 1:8,100 protein to crosslinker molar ratio, 2 h on ice; sequential digestion, SEC, LC-MS/MS, xiSEARCH, 5% FDR; settings: both partners purified
Mcm6 = biological target: T2, Mcm6 (S. cerevisiae, UniProt P53091 1-1017); assay: as above; settings: both partners purified
T2 construct: Mcm6, S. cerevisiae, subunit of MCM2-7 in the OCCM complex; source: in the OCCM complex assembled on pUC19-ARS1 beads as described elsewhere (Evrin et al, 2009)
T2 sequence (P53091 whole entry): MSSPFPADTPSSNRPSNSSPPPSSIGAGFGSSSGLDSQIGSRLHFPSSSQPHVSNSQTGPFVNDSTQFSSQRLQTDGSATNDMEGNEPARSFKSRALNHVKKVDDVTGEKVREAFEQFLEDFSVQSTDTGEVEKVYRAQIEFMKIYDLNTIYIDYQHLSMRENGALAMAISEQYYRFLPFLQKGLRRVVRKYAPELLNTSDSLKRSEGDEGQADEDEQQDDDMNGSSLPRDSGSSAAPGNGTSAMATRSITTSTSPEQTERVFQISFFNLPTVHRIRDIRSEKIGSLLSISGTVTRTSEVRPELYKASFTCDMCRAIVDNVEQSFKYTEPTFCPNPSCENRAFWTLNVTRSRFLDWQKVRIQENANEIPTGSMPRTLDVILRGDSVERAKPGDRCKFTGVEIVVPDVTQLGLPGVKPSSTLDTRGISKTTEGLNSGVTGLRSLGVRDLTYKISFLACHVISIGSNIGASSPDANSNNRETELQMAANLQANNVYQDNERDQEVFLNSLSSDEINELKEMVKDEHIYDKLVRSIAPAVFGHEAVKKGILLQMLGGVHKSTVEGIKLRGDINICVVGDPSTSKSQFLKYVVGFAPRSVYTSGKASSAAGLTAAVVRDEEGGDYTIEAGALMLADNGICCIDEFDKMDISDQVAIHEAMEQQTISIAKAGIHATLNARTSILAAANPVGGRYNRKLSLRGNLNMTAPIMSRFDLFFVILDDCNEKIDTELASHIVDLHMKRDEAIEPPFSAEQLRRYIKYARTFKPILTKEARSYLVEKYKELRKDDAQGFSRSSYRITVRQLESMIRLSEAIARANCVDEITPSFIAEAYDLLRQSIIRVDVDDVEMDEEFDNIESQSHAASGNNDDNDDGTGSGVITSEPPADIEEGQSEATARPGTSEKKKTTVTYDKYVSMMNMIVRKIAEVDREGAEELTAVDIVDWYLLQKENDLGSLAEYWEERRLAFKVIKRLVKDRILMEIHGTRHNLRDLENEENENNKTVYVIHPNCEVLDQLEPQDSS

Row | Molecule | binding result (Mcm2) | other results
1 | C3b (from UniProt P01024 749-1663; P01024 749-1663) (natural protein) | – | stoichiometry N (C3b (human)): 2
2 | B1 | binds | –
3 | B2 | binds | –
4 | B3 | – | binding result (Mcm6): binds
